# T1: HlyU (VcHlyU), WT (Vibrio cholerae, UniProt P52695 1-108)
# T1 sequence: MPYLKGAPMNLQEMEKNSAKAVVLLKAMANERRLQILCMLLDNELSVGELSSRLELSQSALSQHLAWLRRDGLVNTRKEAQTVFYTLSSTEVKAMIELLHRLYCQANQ
# Tests used:
# [1] = target: the molecule itself; assay: SEC; calibrated Superdex 75 gel-filtration column; 25 mM MES, 0.2 M NaCl, 2 mM EDTA, 2 mM TCEP, 5% glycerol, pH 6, 25 °C
# [2] = target: T1, HlyU (VcHlyU), WT; assay: fluorescence anisotropy; reduced HlyU (TCEP), 100 mM NaCl; n=4; Table 1: 25 mM Hepes pH 7, 100 mM NaCl, 1 mM EDTA, 25 °C; Methods: 10 mM Hepes pH 7.0, 0.1 M NaCl, with or without 2 mM TCEP, 10 nM DNA; settings: protein: recombinant; chain copies: 2; label: 5'-fluorescein on strand 1; blunt
# [3] = target: T1, HlyU (VcHlyU), WT; assay: fluorescence anisotropy; HlyU pretreated with 5-fold H2O2; text: no change in affinity; n=3; Table 1: 25 mM Hepes pH 7, 100 mM NaCl, 1 mM EDTA, 25 °C; Methods: 10 mM Hepes pH 7.0, 0.1 M NaCl, with or without 2 mM TCEP, 10 nM DNA; settings: protein: recombinant; chain copies: 2; label: 5'-fluorescein on strand 1; blunt
Binder,stoichiometry N [1],Ka [2],Ka [3]
"Vibrio cholerae HlyU (natural protein, also called VcHlyU; WT HlyU) MPYLKGAPMNLQEMEKNSAKAVVLLKAMANERRLQILCMLLDNELSVGELSSRLELSQSALSQHLAWLRRDGLVNTRKEAQTVFYTLSSTEVKAMIELLHRLYCQANQ",2,–,–
hlyO operator (hlyA promoter) (dsDNA) DNA 1: TATAAATTAATTCAGACTAAATTAGTTCAAA DNA 2: TTTGAACTAATTTAGTCTGAATTAATTTATA,–,0.4 ± 0.08 10^9 M^-1,0.19 ± 0.03 10^9 M^-1

# From paper PMC10509353, “Increased intracellular persulfide levels attenuate HlyU-mediated hemolysin transcriptional activation in Vibrio cholerae” (The Journal of Biological Chemistry, 2023)
